Measured values reported in paper PMC10149931, “Wiskott-Aldrich syndrome protein interacts and inhibits diacylglycerol kinase alpha promoting IL-2 induction” (Frontiers in Immunology, 2023).

Biological target: myc-DGKα (UniProt P23743 1-735)
Assay: cell-based or functional assay

myc-DGKα, sequence (P23743 whole entry): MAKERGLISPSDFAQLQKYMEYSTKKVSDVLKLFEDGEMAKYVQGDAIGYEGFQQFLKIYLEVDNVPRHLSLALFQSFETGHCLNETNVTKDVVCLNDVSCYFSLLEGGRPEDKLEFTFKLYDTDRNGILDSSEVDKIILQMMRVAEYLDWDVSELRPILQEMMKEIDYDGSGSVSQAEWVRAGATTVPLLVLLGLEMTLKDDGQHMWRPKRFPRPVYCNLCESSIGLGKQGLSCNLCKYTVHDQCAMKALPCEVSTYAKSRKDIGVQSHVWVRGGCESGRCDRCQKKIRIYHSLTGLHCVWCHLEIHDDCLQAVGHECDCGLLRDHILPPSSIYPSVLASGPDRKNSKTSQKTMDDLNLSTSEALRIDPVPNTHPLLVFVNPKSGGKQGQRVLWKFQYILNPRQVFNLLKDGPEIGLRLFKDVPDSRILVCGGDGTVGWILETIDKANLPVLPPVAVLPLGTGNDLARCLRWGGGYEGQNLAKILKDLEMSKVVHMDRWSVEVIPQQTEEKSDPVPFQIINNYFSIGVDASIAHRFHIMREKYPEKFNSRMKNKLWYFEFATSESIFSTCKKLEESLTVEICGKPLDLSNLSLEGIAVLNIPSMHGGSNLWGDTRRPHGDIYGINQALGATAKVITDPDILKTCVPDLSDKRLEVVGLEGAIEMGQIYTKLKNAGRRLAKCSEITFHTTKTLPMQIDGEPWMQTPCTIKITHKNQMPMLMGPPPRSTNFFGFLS

B1: FLAG-WASp (natural protein, UniProt P42768 1-502, looked up)
chain: MSGGPMGGRPGGRGAPAVQQNIPSTLLQDHENQRLFEMLGRKCLTLATAVVQLYLALPPGAEHWTKEHCGAVCFVKDNPQKSYFIRLYGLQAGRLLWEQELYSQLVYSTPTPFFHTFAGDDCQAGLNFADEDEAQAFRALVQEKIQKRNQRQSGDRRQLPPPPTPANEERRGGLPPLPLHPGGDQGGPPVGPLSLGLATVDIQNPDITSSRYRGLPAPGPSPADKKRSGKKKISKADIGAPSGFKHVSHVGWDPQNGFDVNNLDPDLRSLFSRAGISEAQLTDAETSKLIYDFIEDQGGLEAVRQEMRRQEPLPPPPPPSRGGNQLPRPPIVGGNKGRSGPLPPVPLGIAPPPPTPRGPPPPGRGGPPPPPPPATGRSGPLPPPPPGAGGPPMPPPPPPPPPPPSSGNGPAPPPLPPALVPAGGLAPGGGRGALLDQIRQGIQLNKTPGAPESSALQPPPQSSEGLVGALMHVMQKRSRAIHSSDEGEDQAGDEDEDDEWDD
decrease in DGK activity of total homogenates of 293T cells co-transfected with myc-DGKα and FLAG-WASp, against myc-DGKα with GFP control vector: ~50%
